Source: paper PMC9437722, “Identification of UDP-rhamnosyltransferases and UDP-galactosyltransferase involved in flavonol glycosylation in Morella rubra” (Horticulture Research, 2022)
One block for each molecule: values may come before it.

Tests used:
MrUGT78W1 = tested on: T1, MrUGT78W1; test: UDP-Glo glycosyltransferase assay, luminescence; type: biochemical, Morella rubra; conditions: 650 μM UDP-Gal, Tris-HCl 100 mM pH 8.5, 30°C
T1 construct: gene UGT78W1; full length, 469 residues (ORF 1410 bp), pET-32a(+) in E. coli BL21(DE3)pLysS, HisTALON purified, tag cleavage not mentioned; gene on chromosome 7
Source text: UDP-Glo glycosyltransferase assay, luminescence on MrUGT78W1

purified protein = substrate: O=c1c(O)c(-c2cc(O)c(O)c(O)c2)oc2cc(O)cc(O)c12; test: purified protein; conditions: 650 μM UDP-Rha, Tris-HCl 100 mM pH 7.5, 35°C
[1] = substrate: O=c1c(O)c(-c2ccc(O)c(O)c2)oc2cc(O)cc(O)c12; test: UDP-Glo glycosyltransferase assay, luminescence; type: biochemical, Morella rubra; conditions: 650 μM UDP-Rha, Tris-HCl 100 mM pH 7.5, 35°C
Source text: (§1) UDP-Glo glycosyltransferase assay, luminescence on MrUGT78R2

[2] = substrate: O=c1c(O)c(-c2ccc(O)cc2)oc2cc(O)cc(O)c12; test: UDP-Glo glycosyltransferase assay, luminescence; type: biochemical, Morella rubra; conditions: 650 μM UDP-Rha, Tris-HCl 100 mM pH 7.5, 35°C
Source text: as §1

Molecule: O=c1c(O)c(-c2ccc(O)c(O)c2)oc2cc(O)cc(O)c12 [Q, Quercetin]
Km (MrUGT78W1): 93.5 ± 2.69 µM

Km (MrUGT78W1): 50 ± 4.63 µM
Molecule: O=c1c(O)c(-c2ccc(O)cc2)oc2cc(O)cc(O)c12 [K, Kaempferol]

Km (MrUGT78W1): 13.7 ± 0.92 µM
Molecule: O=c1c(O)c(-c2cc(O)c(O)c(O)c2)oc2cc(O)cc(O)c12 [M, Myricetin]

B1: MrUGT78R2 (Morella rubra) (protein)
chain: MTQSSQDQHVAVLAFPLGCHPWPLLNLACKLACAAPNVRFSFFNTPKSNSKLFSTSQAEPPQNLKAYDVADGVPEGHVFTPGNPVEELELFLNAAPESFRNGMDMAVAETGREISCLLTDAFLVFASEMALDMHAKWVPFWVPAPHSLSAHMYSDLIYETYTNVCGGGEDGINTSDGDNYGTGTLGGIKPIDKTLDVIPGLSIMRFRDLPQQLLLGDFNSSLFSSALYRIGAVLPQASAVIMNSFQELNPATLTDDLKSKFQNLLYVGFLTLTLPPPPPPPSHSDATGCLPWLDDQKPTSVAYISFGTVSAVPPHEFVALAEALEASHVPFLWSLRDNFKEILPTGFLQRTRTQGKIVPWAPQAHVLAHKAVGVYVTHCGYNSVFESVVGEVPMICRPILGDNMFNGRMVEDVWGIGVGVEGGVFTKNGMLKSLEVVLGEEHGKRMREKIRDIKDLVVKAAGPTGIASKDFNTLVEVISK
notes: full length, 480 residues (ORF 1443 bp), pET-32a(+) in E. coli BL21(DE3)pLysS, HisTALON purified, tag cleavage not mentioned
Km (purified protein): 66.78 ± 3.56 µM | kcat/Km (purified protein): 34700 M⁻¹ s⁻¹ | Km [1]: 61.81 ± 8.74 µM | kcat/Km [1]: 45900 ± 4500 M⁻¹ s⁻¹ | Km [2]: 58.11 ± 5.52 µM | kcat/Km [2]: 37800 ± 2500 M⁻¹ s⁻¹
